Data on 125 sequences can be found in the supplement of paper PMC9112550, “Optimization of the antimicrobial peptide Bac7 by deep mutational scanning” (BMC Biology, 2022).

For this series, the system named is Escherichia coli TOP10. The series can be described thus: shrunken log2 fold change of peptide-encoding DNA abundance (4.5 h post-induction vs induction); higher = less antimicrobial activity (less host growth inhibition). Particulars: time post-induction: 4.5 h; library: site-saturation at positions 5, 18, 19, 20.
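Also: peptides expressed intracellularly from a pBAD plasmid library in pooled LB shake-flask culture, induced with 0.3% L-arabinose, DNA abundance read by NGS, three biological replicates, DESeq2 with apeglm shrinkage.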

With RRIRSRPPRLPRPRPRPCRRPRP, the “shrunken log2 fold change” value is -0.241.

In the case of RRIRIRPPRLPRPRPRPTWFPRP, the “shrunken log2 fold change” value was found to be 0.159.

RRIRYRPPRLPRPRPRPLYCPRP: the “shrunken log2 fold change” value is -0.975. For the sequence RRIRWRPPRLPRPRPRPIMDPRP, the “shrunken log2 fold change” value is -0.195. RRIRFRPPRLPRPRPRPKHGPRP: the “shrunken log2 fold change” value is 0.405. On to RRIRFRPPRLPRPRPRPHWPPRP, for which the “shrunken log2 fold change” value turned out to be 0.251. For RRIRERPPRLPRPRPRPFSSPRP the value was -0.0152. The same measure for RRIRGRPPRLPRPRPRPQLCPRP: 0.0863; for RRIRWRPPRLPRPRPRPGAAPRP: 1.06. Take RRIRGRPPRLPRPRPRPWQSPRP: the “shrunken log2 fold change” value is 0.161. For RRIRCRPPRLPRPRPRPIFLPRP, the “shrunken log2 fold change” value is -0.257.

In the case of RRIRPRPPRLPRPRPRPGWHPRP, the “shrunken log2 fold change” value worked out at 0.248.

Regarding RRIRFRPPRLPRPRPRPADHPRP, the “shrunken log2 fold change” value turned out to be 0.00851. For RRIRRRPPRLPRPRPRPYAAPRP the value was 0.395; for RRIRYRPPRLPRPRPRPKCIPRP, -0.154; for RRIRDRPPRLPRPRPRPAQSPRP, 0.216. As for RRIRKRPPRLPRPRPRPFMTPRP, the “shrunken log2 fold change” value worked out at 0.168.

With RRIRARPPRLPRPRPRPYEGPRP, the “shrunken log2 fold change” value is -0.195.

Regarding RRIRHRPPRLPRPRPRPQECPRP, the “shrunken log2 fold change” value is -0.0126. Consider RRIRLRPPRLPRPRPRPSLRPRP, for which the “shrunken log2 fold change” value was determined as 0.00716. For RRIRMRPPRLPRPRPRPIWIPRP, the “shrunken log2 fold change” value was 0.14.

Regarding RRIRRRPPRLPRPRPRPSPYPRP, the “shrunken log2 fold change” value worked out at 0.0987.

Consider RRIRNRPPRLPRPRPRPRCEPRP, for which the “shrunken log2 fold change” value was 0.357. As for RRIRWRPPRLPRPRPRPAHLPRP, the “shrunken log2 fold change” value worked out at 0.15.

As for RRIRTRPPRLPRPRPRPTDRPRP, the “shrunken log2 fold change” value was -0.212. For RRIRPRPPRLPRPRPRPDFNPRP, the “shrunken log2 fold change” value turned out to be 1.09. For RRIRGRPPRLPRPRPRPYHCPRP, the “shrunken log2 fold change” value was -0.0643.

Consider RRIRYRPPRLPRPRPRPSGPPRP, for which the “shrunken log2 fold change” value was -0.395. Consider RRIRQRPPRLPRPRPRPKQMPRP, for which the “shrunken log2 fold change” value amounted to 0.114.

Consider RRIRKRPPRLPRPRPRPTWSPRP, for which the “shrunken log2 fold change” value is 0.278. With RRIRRRPPRLPRPRPRPCWWPRP, the “shrunken log2 fold change” value is 0.261. For RRIRFRPPRLPRPRPRPATMPRP, the “shrunken log2 fold change” value is -0.0804.

Take RRIRSRPPRLPRPRPRPDLCPRP: the “shrunken log2 fold change” value was -0.159. With RRIRPRPPRLPRPRPRPWLPPRP, the “shrunken log2 fold change” value was -0.0294. For the sequence RRIRTRPPRLPRPRPRPNYNPRP, the “shrunken log2 fold change” value is -0.831. Take RRIRCRPPRLPRPRPRPNEAPRP: the “shrunken log2 fold change” value came out at 0.00978. Consider RRIRGRPPRLPRPRPRPRKVPRP, for which the “shrunken log2 fold change” value worked out at 0.741. With RRIRSRPPRLPRPRPRPMAQPRP, the “shrunken log2 fold change” value is 0.112. On to RRIRHRPPRLPRPRPRPFGYPRP, for which the “shrunken log2 fold change” value is -0.133.

Take RRIRDRPPRLPRPRPRPCSHPRP: the “shrunken log2 fold change” value is -0.0198. Regarding RRIRMRPPRLPRPRPRPHEIPRP, the “shrunken log2 fold change” value was found to be 0.356. For RRIRTRPPRLPRPRPRPLRFPRP the value was 0.742. RRIRMRPPRLPRPRPRPSCVPRP: the “shrunken log2 fold change” value came to 0.22.

On to RRIRLRPPRLPRPRPRPMVRPRP, for which the “shrunken log2 fold change” value amounted to 0.0341. As for RRIRKRPPRLPRPRPRPMNHPRP, the “shrunken log2 fold change” value stood at 0.395. With RRIRRRPPRLPRPRPRPHKMPRP, the “shrunken log2 fold change” value was -0.167.

In the case of RRIRSRPPRLPRPRPRPYVFPRP, the “shrunken log2 fold change” value was -0.545. As to RRIRIRPPRLPRPRPRPLKCPRP, the “shrunken log2 fold change” value was 0.0563. For the sequence RRIRFRPPRLPRPRPRPHNNPRP, the “shrunken log2 fold change” value was -0.638. RRIRGRPPRLPRPRPRPTNAPRP: the “shrunken log2 fold change” value was found to be 0.923. As for RRIRSRPPRLPRPRPRPLDAPRP, the “shrunken log2 fold change” value was 0.259. With RRIRWRPPRLPRPRPRPSVIPRP, the “shrunken log2 fold change” value is -0.272.

In the case of RRIRIRPPRLPRPRPRPFQTPRP, the “shrunken log2 fold change” value was -0.271. For RRIRLRPPRLPRPRPRPYCPPRP the value was -0.24. With RRIRTRPPRLPRPRPRPQQLPRP, the “shrunken log2 fold change” value came out at 1.75. For RRIRSRPPRLPRPRPRPMWRPRP, the “shrunken log2 fold change” value amounted to 0.1. For the sequence RRIRPRPPRLPRPRPRPIPGPRP, the “shrunken log2 fold change” value is 0.0171. For RRIRDRPPRLPRPRPRPLVMPRP, the “shrunken log2 fold change” value amounted to 0.0567. As for RRIRARPPRLPRPRPRPWPNPRP, the “shrunken log2 fold change” value is 0.111.

Take RRIRCRPPRLPRPRPRPAEPPRP: the “shrunken log2 fold change” value is 0.368.

Take RRIRSRPPRLPRPRPRPFPNPRP: the “shrunken log2 fold change” value is -0.133.

Turning to RRIRWRPPRLPRPRPRPAHFPRP, the “shrunken log2 fold change” value was found to be 0.141. As to RRIRRRPPRLPRPRPRPRPIPRP, the “shrunken log2 fold change” value was 0.945. For the sequence RRIRDRPPRLPRPRPRPRKYPRP, the “shrunken log2 fold change” value is -0.283.

As to RRIRWRPPRLPRPRPRPLFSPRP, the “shrunken log2 fold change” value was 0.0976. As to RRIRQRPPRLPRPRPRPQAWPRP, the “shrunken log2 fold change” value is 0.0305. Regarding RRIRRRPPRLPRPRPRPTCIPRP, the “shrunken log2 fold change” value is -0.123. The same measure for RRIRKRPPRLPRPRPRPLIFPRP: -0.0683; for RRIRKRPPRLPRPRPRPISRPRP: -0.00748; for RRIRFRPPRLPRPRPRPTHQPRP: 2.65.

In the case of RRIRQRPPRLPRPRPRPPANPRP, the “shrunken log2 fold change” value worked out at 0.409. Turning to RRIRKRPPRLPRPRPRPKVGPRP, the “shrunken log2 fold change” value was determined as 0.00386. Turning to RRIRLRPPRLPRPRPRPLSNPRP, the “shrunken log2 fold change” value is -0.782. For the sequence RRIRTRPPRLPRPRPRPMNMPRP, the “shrunken log2 fold change” value was -0.24. For RRIRNRPPRLPRPRPRPRMFPRP, the “shrunken log2 fold change” value is -0.362. Consider RRIRDRPPRLPRPRPRPFWTPRP, for which the “shrunken log2 fold change” value is -0.116.

As for RRIRLRPPRLPRPRPRPPQKPRP, the “shrunken log2 fold change” value stood at 0.131. On to RRIRSRPPRLPRPRPRPRLEPRP, for which the “shrunken log2 fold change” value was 0.596. RRIRARPPRLPRPRPRPYIKPRP: the “shrunken log2 fold change” value was -1.17. With RRIRIRPPRLPRPRPRPFNVPRP, the “shrunken log2 fold change” value was -0.217. As for RRIRRRPPRLPRPRPRPFWNPRP, the “shrunken log2 fold change” value was determined as 0.0866. On to RRIRYRPPRLPRPRPRPQNGPRP, for which the “shrunken log2 fold change” value was -0.152.

Regarding RRIRVRPPRLPRPRPRPYAKPRP, the “shrunken log2 fold change” value is -0.0931. Regarding RRIRTRPPRLPRPRPRPFVIPRP, the “shrunken log2 fold change” value was -0.488. The same measure for RRIRWRPPRLPRPRPRPSKDPRP: -0.412.

In the case of RRIRQRPPRLPRPRPRPFYDPRP, the “shrunken log2 fold change” value was -0.208. Consider RRIRLRPPRLPRPRPRPKDSPRP, for which the “shrunken log2 fold change” value was -0.139. For RRIRARPPRLPRPRPRPYTKPRP, the “shrunken log2 fold change” value was -0.156.

RRIRRRPPRLPRPRPRPLINPRP: the “shrunken log2 fold change” value is -0.0185. The same measure for RRIRERPPRLPRPRPRPFPGPRP: -0.0108. For RRIRNRPPRLPRPRPRPQGIPRP, the “shrunken log2 fold change” value was -0.216. RRIRGRPPRLPRPRPRPANFPRP: the “shrunken log2 fold change” value stood at 0.0804. For RRIRIRPPRLPRPRPRPLANPRP the value was -0.145. Turning to RRIRLRPPRLPRPRPRPPLSPRP, the “shrunken log2 fold change” value was -0.00759. For RRIRARPPRLPRPRPRPNHYPRP the value was -0.456; for RRIRGRPPRLPRPRPRPTVNPRP, 0.597; for RRIRPRPPRLPRPRPRPMFEPRP, 0.0626. RRIRNRPPRLPRPRPRPFCIPRP: the “shrunken log2 fold change” value was -0.186. In the case of RRIRQRPPRLPRPRPRPWFMPRP, the “shrunken log2 fold change” value was -1.08. Take RRIRKRPPRLPRPRPRPLDEPRP: the “shrunken log2 fold change” value was determined as 0.0161. Consider RRIRDRPPRLPRPRPRPQWEPRP, for which the “shrunken log2 fold change” value came to 0.033. For RRIRDRPPRLPRPRPRPSVYPRP, the “shrunken log2 fold change” value was -0.404.

With RRIRLRPPRLPRPRPRPDAEPRP, the “shrunken log2 fold change” value came to 0.326. For RRIRIRPPRLPRPRPRPPTYPRP the value was -0.427.

For RRIRIRPPRLPRPRPRPDSIPRP, the “shrunken log2 fold change” value is -0.00884. In the case of RRIRTRPPRLPRPRPRPWLMPRP, the “shrunken log2 fold change” value is -0.11. Turning to RRIRHRPPRLPRPRPRPEDHPRP, the “shrunken log2 fold change” value stood at 0.0753. Take RRIRIRPPRLPRPRPRPHFRPRP: the “shrunken log2 fold change” value was -0.555.

As to RRIRIRPPRLPRPRPRPTLMPRP, the “shrunken log2 fold change” value is -0.0204. The same measure for RRIRTRPPRLPRPRPRPTNQPRP: -0.067. As for RRIRARPPRLPRPRPRPSTVPRP, the “shrunken log2 fold change” value came out at 0.123.

For the sequence RRIRNRPPRLPRPRPRPPQLPRP, the “shrunken log2 fold change” value stood at 0.131.

As to RRIRMRPPRLPRPRPRPGMQPRP, the “shrunken log2 fold change” value was -0.00144. With RRIRLRPPRLPRPRPRPHEVPRP, the “shrunken log2 fold change” value is -0.0201. As for RRIRTRPPRLPRPRPRPHFQPRP, the “shrunken log2 fold change” value was -0.294.

Consider RRIRPRPPRLPRPRPRPCCPPRP, for which the “shrunken log2 fold change” value was -0.377. In the case of RRIRYRPPRLPRPRPRPEEYPRP, the “shrunken log2 fold change” value was -0.255. As to RRIRDRPPRLPRPRPRPRFDPRP, the “shrunken log2 fold change” value is -0.0584.

Consider RRIRKRPPRLPRPRPRPMPHPRP, for which the “shrunken log2 fold change” value worked out at 0.274. For RRIRARPPRLPRPRPRPAYKPRP, the “shrunken log2 fold change” value was -0.0413. As for RRIRLRPPRLPRPRPRPYLMPRP, the “shrunken log2 fold change” value was -0.69. For RRIRKRPPRLPRPRPRPPWGPRP the value was 0.501; for RRIRLRPPRLPRPRPRPDGDPRP, 0.234; for RRIRSRPPRLPRPRPRPQDLPRP, -0.0949. RRIRRRPPRLPRPRPRPMCDPRP: the “shrunken log2 fold change” value worked out at 0.308.
